The values below are quoted from earlier work in PMC12206923.

For this data set, the target named is dimeric IL-2 receptor (Homo sapiens) (UniProt P14784).
Sequence of UniProt P14784 (P14784 27-240, chain 1 of 2): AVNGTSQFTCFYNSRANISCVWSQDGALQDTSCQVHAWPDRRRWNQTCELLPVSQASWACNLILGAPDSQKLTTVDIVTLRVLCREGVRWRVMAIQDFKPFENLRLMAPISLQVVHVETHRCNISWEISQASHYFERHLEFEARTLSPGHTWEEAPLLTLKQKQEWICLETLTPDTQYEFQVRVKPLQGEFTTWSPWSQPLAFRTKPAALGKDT
Sequence of UniProt P14784 (P31785 23-262, chain 2 of 2, further chain): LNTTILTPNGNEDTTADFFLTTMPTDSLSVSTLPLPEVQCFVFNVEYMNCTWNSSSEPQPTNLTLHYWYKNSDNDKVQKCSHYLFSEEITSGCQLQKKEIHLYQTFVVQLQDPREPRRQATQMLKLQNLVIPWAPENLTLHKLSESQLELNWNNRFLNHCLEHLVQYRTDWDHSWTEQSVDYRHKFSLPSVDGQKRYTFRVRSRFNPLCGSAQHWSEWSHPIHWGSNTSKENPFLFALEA

Sequence of IL-2 (P60568 21-153): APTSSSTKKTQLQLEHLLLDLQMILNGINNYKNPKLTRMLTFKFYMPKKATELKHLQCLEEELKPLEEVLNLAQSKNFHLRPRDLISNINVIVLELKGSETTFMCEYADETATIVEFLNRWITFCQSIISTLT

Usually Kd stands for the constant that tells how readily two partners part at equilibrium. Consider IL-2 (from UniProt P60568), for which the Kd was 1 nM.
